This is an account of results in the supplement of paper PMC10567573.

± gives the standard deviation.

The data set in a line: protein stability index of a GFP-peptide fusion (GPS, HEK-293T) (PSI 1-6); higher = more stable. To be noted: c terminus: a fixed tail appended.
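Note: 24-mer peptide tiles fused after GFP, lentivirally expressed, FACS-sorted into six equal bins by GFP/DsRed ratio, decoded by Illumina sequencing, PSI is the read-weighted mean bin number.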

For GSTAITPGTPPSYSSRTPGTPGTP [MAP2], the protein stability index was 4.87 ± 0.2 (treatment: DMSO) and 4.98 ± 0.11 (treatment: MLN4924 1 uM, 8 h).
With IPGHGGIMDRFDCQYLMATFVNVY [CDS2], the protein stability index was 3 ± 0.46 (treatment: DMSO) and 2.54 ± 0.51 (treatment: MLN4924 1 uM, 8 h).
The like results for EMRISESAASGARFPLDSAQDPDV [PCDHGC5] were, in that order, 5.38 ± 0.21 and 5.35 ± 0.16.
The matching figures for LLAVPNIILTNQSVREVTQIKCIE [P2RY14]: 2.53 ± 0.29 and 2.35 ± 0.21.
The like results for TDDDGQAPEAKDGSSFSGRVFRVT [APMAP] were, in that order, 4.94 ± 0.24 and 4.74 ± 0.23.
SPGIGAVYLANQAKNQSDEAKEAK [RTP4] gave a protein stability index (treatment: DMSO) of 5.28 ± 0.22 and a protein stability index (treatment: MLN4924 1 uM, 8 h) of 5.28 ± 0.12.
The matching figures for NGDLSRSLSPSPLGSSAASTALER [FCHO1]: 4.78 ± 0.22 and 4.83 ± 0.37.
Take HSMHKYQPRIHLVRAAQLCSQHWG [TBX6]: the protein stability index was found to be 2.14 ± 0.2 (treatment: DMSO) and 2.22 ± 0.3 (treatment: MLN4924 1 uM, 8 h).
The matching figures for YQPEPFACGIEHCSVHYVSDSGDG [FBXO34]: 2.93 ± 0.27 and 3.04 ± 0.26.
The matching figures for MSPGDCPPETTETPKCSSPRGQEG [YJU2B]: 5.44 ± 0.43 and 5.5 ± 0.11.
The like results for VLKKLAQSRRTALATSPITVGDLG [YJU2B] were, in that order, 2.614 ± 0.015 and 2.58 ± 0.24.
Consider LYYQSQELPNGSVKEAPAPTPTSL [PDZK1], for which the protein stability index runs as follows: (treatment: DMSO) 3.87 ± 0.27; (treatment: MLN4924 1 uM, 8 h) 3.93 ± 0.19.
The like results for SLSSIATCVYIAEIAPQHRRGLLV [SLC2A12] were, in that order, 2.6 ± 0.81 and 2.6 ± 0.52.
For the sequence NKLTTLPSDFCGLTHLVKLDLSKN [LRRC59], the protein stability index worked out at 2.37 ± 0.12 (treatment: DMSO) and 2.31 ± 0.14 (treatment: MLN4924 1 uM, 8 h).
For PAGGLAPGGGRGALLDQIRQGIQL [WAS], the protein stability index is, setting by setting: (treatment: DMSO) 4.7 ± 0.19; (treatment: MLN4924 1 uM, 8 h) 4.54 ± 0.76.
On to SPNYPSKYPPDRECIYIIEAAPRQ [NETO1], for which the protein stability index was found to be 2.58 ± 0.11 (treatment: DMSO) and 2.77 ± 0.31 (treatment: MLN4924 1 uM, 8 h).
The matching figures for AAVVHHFESFPAGSTLIFYKYCDH [TOR1AIP2]: 2.37 ± 0.43 and 2.23 ± 0.52.
The like results for DGVITASEDRTIRVWLKRDSGQYW [WDFY1] were, in that order, 2.65 ± 0.65 and 2.76 ± 0.18.
The matching figures for QETLTNISAVNYDFDEEYFSNTSE [DAPK3]: 5.41 ± 0.26 and 5.41 ± 0.21.
In the case of LREIVHKPGPITLTVAKCWDPSPR [DVL3], the protein stability index turned out to be 2.8 ± 0.28 (treatment: DMSO) and 2.93 ± 0.32 (treatment: MLN4924 1 uM, 8 h).
The like results for PPDKGEEQVNFCESSNDFGPYEGG [ZBTB22] were, in that order, 5.53 ± 0.098 and 5.41 ± 0.26.
The like results for SSPNLQVSSDGTLKYMEVTLRPTD [PCDHGC5] were, in that order, 3.84 ± 0.092 and 4.12 ± 0.33.
The like results for PFSECGEAVSDSTPFLTNHGAHKA [ZNF263] were, in that order, 4.76 ± 0.24 and 4.93 ± 0.32.
Take VQIRRLEAAGESLEEEIRRKQILL [ZC2HC1C]: the protein stability index was determined as 3.31 ± 0.37 (treatment: DMSO) and 3.45 ± 0.37 (treatment: MLN4924 1 uM, 8 h).
The matching figures for TKIRALQGSLENMSKLLKRQNDIL [CD207]: 2.4 ± 0.16 and 2.57 ± 0.21.
The like results for QGQAAAPASGSGADSEPARHIFSF [TRIM55] were, in that order, 3.76 ± 0.27 and 3.79 ± 0.3.
The like results for KKGLFLKHVEYEVSSQRFKSSVYR [SNX8] were, in that order, 2.38 ± 0.14 and 2.91 ± 0.28.
With EESGSSSASEEEDTKPKPTKRKRK [INTS3], the protein stability index is, setting by setting: (treatment: DMSO) 5.55 ± 0.17; (treatment: MLN4924 1 uM, 8 h) 5.57 ± 0.29.
The like results for GLVYRIHSVLQGFIPLFQKFRLTG [TMEM40] were, in that order, 3.03 ± 0.56 and 2.73 ± 0.37.
With RLHLAFKRQVPREQAQAYAERLGV [RAB40A], the protein stability index reads like this: (treatment: DMSO) 2.76 ± 0.16; (treatment: MLN4924 1 uM, 8 h) 3.12 ± 0.18.
The matching figures for MNPYNAVLTKKFQVTMRGLLSCLS [FBXO39]: 2.7 ± 0.75 and 2.72 ± 0.23.
The matching figures for HYVAQTGILWLLMNNCFLNLSPRK [GAGE1]: 2.72 ± 0.38 and 3.584 ± 0.027.
The matching figures for NAGLSSTAGLLREQVAQLKQKVMT [JUNB]: 3.42 ± 0.24 and 3.39 ± 0.42.
As to LTFAKSSWARQESLQERKQALYEY [AUP1], the protein stability index by setting is: (treatment: DMSO) 2.78 ± 0.43; (treatment: MLN4924 1 uM, 8 h) 2.67 ± 0.39.
As for GIKGLVRDSHGKGIPNAIISVEGI [CPXM2], the protein stability index (treatment: DMSO) was 2.8 ± 0.067.
Regarding PMYFFLGNLSVLDVGCISVTVPSM [OR3A1], the protein stability index was 2.65 ± 0.52 (treatment: DMSO) and 3.06 ± 0.65 (treatment: MLN4924 1 uM, 8 h).
The matching figures for NRERVVSLIEDLQRELEIPEQQVD [ZNF449]: 5.13 ± 0.23 and 5.17 ± 0.16.
